Measured values as given in IntAct's records for PubMed 18063693.

B1: Steroid hormone receptor ERR1 (Homo sapiens), P11474 (parent)
chain: MSSQVVGIEPLYIKAEPASPDSPKGSSETETEPPVALAPGPAPTRCLPGHKEEEDGEGAGPGEQGGGKLVLSSLPKRLCLVCGDVASGYHYGVASCEACKAFFKRTIQGSIEYSCPASNECEITKRRRKACQACRFTKCLRVGMLKEGVRLDRVRGGRQKYKRRPEVDPLPFPGPFPAGPLAVAGGPRKTAAPVNALVSHLLVVEPEKLYAMPDPAGPDGHLPAVATLCDLFDREIVVTISWAKSIPGFSSLSLSDQMSVLQSVWMEVLVLGVAQRSLPLQDELAFAEDLVLDEEGARAAGLGELGAALLQLVRRLQALRLEREEYVLLKALALANSDSVHIEDAEAVEQLREALHEALLEYEAGRAGPGGGAERRRAGRLLLTLPLLRQTAGKVLAHFYGVKLEGKVPMHKLFLEMLEAMMD
B2: Steroid hormone receptor ERR1 (Homo sapiens), P11474 (parent)
chain: B1 chain
partner: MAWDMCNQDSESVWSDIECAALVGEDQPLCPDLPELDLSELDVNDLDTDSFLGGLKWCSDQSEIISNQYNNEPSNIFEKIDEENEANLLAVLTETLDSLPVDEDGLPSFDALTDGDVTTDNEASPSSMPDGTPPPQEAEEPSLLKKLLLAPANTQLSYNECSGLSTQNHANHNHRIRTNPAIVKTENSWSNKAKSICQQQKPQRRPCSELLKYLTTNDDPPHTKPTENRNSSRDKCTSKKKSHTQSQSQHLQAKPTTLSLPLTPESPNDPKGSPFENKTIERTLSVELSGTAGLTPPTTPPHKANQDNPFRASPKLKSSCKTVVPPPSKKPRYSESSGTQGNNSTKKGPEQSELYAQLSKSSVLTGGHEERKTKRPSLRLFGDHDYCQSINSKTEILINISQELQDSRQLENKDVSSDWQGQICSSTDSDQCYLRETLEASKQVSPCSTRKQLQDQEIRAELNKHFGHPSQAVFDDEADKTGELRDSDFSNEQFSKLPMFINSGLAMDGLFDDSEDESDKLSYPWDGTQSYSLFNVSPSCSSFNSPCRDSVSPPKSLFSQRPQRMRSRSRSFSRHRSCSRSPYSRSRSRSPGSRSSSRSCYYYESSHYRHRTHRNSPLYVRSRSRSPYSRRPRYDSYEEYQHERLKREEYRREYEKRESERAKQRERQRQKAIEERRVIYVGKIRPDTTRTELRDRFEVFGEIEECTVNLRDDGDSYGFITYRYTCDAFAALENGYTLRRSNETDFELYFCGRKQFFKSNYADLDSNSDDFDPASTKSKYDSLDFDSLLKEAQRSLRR
B3: Estrogen-related receptor gamma (Homo sapiens), P62508 (parent)
chain: MDSVELCLPESFSLHYEEELLCRMSNKDRHIDSSCSSFIKTEPSSPASLTDSVNHHSPGGSSDASGSYSSTMNGHQNGLDSPPLYPSAPILGGSGPVRKLYDDCSSTIVEDPQTKCEYMLNSMPKRLCLVCGDIASGYHYGVASCEACKAFFKRTIQGNIEYSCPATNECEITKRRRKSCQACRFMKCLKVGMLKEGVRLDRVRGGRQKYKRRIDAENSPYLNPQLVQPAKKPYNKIVSHLLVAEPEKIYAMPDPTVPDSDIKALTTLCDLADRELVVIIGWAKHIPGFSTLSLADQMSLLQSAWMEILILGVVYRSLSFEDELVYADDYIMDEDQSKLAGLLDLNNAILQLVKKYKSMKLEKEEFVTLKAIALANSDSMHIEDVEAVQKLQDVLHEALQDYEAGQHMEDPRRAGKMLMTLPLLRQTSTKAVQHFYNIKLEGKVPMHKLFLEMLEAKV
partner: B2 partner

Variants of: B1
Settings: with sumo3_human SUMO3, P55854
Chain of sumo3_human SUMO3, P55854 (P55854 whole entry): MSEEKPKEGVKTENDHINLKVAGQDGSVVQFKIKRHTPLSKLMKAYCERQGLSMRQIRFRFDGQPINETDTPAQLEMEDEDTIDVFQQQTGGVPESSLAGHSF

Variant	effect of a mutation on the interaction
MSSQVVGIEPLYIRAEPASPDSPKGSSETETEPPVALAPGPAPTRCLPGHKEEEDGEGAGPGEQGGGKLVLSSLPKRLCLVCGDVASGYHYGVASCEACKAFFKRTIQGSIEYSCPASNECEITKRRRKACQACRFTKCLRVGMLKEGVRLDRVRGGRQKYKRRPEVDPLPFPGPFPAGPLAVAGGPRKTAAPVNALVSHLLVVEPEKLYAMPDPAGPDGHLPAVATLCDLFDREIVVTISWAKSIPGFSSLSLSDQMSVLQSVWMEVLVLGVAQRSLPLQDELAFAEDLVLDEEGARAAGLGELGAALLQLVRRLQALRLEREEYVLLKALALANSDSVHIEDAEAVEQLREALHEALLEYEAGRAGPGGGAERRRAGRLLLTLPLLRQTAGKVLAHFYGVKLEGKVPMHKLFLEMLEAMMD [K14R]	with no effect

Variants of: B2
Settings: with prgc1_human PPARGC1A

Variant	effect of a mutation on the interaction
MSSQVVGIEPLYIRAEPASPDSPKGSSETETEPPVALAPGPAPTRCLPGHKEEEDGEGAGPGEQGGGKLVLSSLPKRLCLVCGDVASGYHYGVASCEACKAFFKRTIQGSIEYSCPASNECEITKRRRKACQACRFTKCLRVGMLKEGVRLDRVRGGRQKYKRRPEVDPLPFPGPFPAGPLAVAGGPRKTAAPVNALVSHLLVVEPEKLYAMPDPAGPDGHLPAVATLCDLFDREIVVTISWAKSIPGFSSLSLSDQMSVLQSVWMEVLVLGVAQRSLPLQDELAFAEDLVLDEEGARAAGLGELGAALLQLVRRLQALRLEREEYVLLKALALANSDSVHIEDAEAVEQLREALHEALLEYEAGRAGPGGGAERRRAGRLLLTLPLLRQTAGKVLAHFYGVKLEGKVPMHKLFLEMLEAMMD [K14R]	with no effect

Variants of: B3
Settings: with prgc1_human PPARGC1A

Variant	effect of a mutation on the interaction
MDSVELCLPESFSLHYEEELLCRMSNKDRHIDSSCSSFIRTEPSSPASLTDSVNHHSPGGSSDASGSYSSTMNGHQNGLDSPPLYPSAPILGGSGPVRKLYDDCSSTIVEDPQTKCEYMLNSMPKRLCLVCGDIASGYHYGVASCEACKAFFKRTIQGNIEYSCPATNECEITKRRRKSCQACRFMKCLKVGMLKEGVRLDRVRGGRQKYKRRIDAENSPYLNPQLVQPAKKPYNKIVSHLLVAEPEKIYAMPDPTVPDSDIKALTTLCDLADRELVVIIGWAKHIPGFSTLSLADQMSLLQSAWMEILILGVVYRSLSFEDELVYADDYIMDEDQSKLAGLLDLNNAILQLVKKYKSMKLEKEEFVTLKAIALANSDSMHIEDVEAVQKLQDVLHEALQDYEAGQHMEDPRRAGKMLMTLPLLRQTSTKAVQHFYNIKLEGKVPMHKLFLEMLEAKV [K40R]	with no effect
